# Test results from the Immune Epitope Database (IEDB).
# What was measured:
# Experiment in all cases: IEDB peptide-MHC binding, purified MHC/competitive/radioactivity; filed as Kd, often an IC50 or EC50 that approximates it; ≥ and ≤ were set here for values at or beyond the usual limits of such assays
# HLA-A*02:02 = molecular target: HLA-A*02:02
# HLA-A*02:06 = molecular target: HLA-A*02:06
# HLA-A*02:03 = molecular target: HLA-A*02:03
# HLA-A*68:01 = molecular target: HLA-A*68:01
# HLA-A*03:01 = molecular target: HLA-A*03:01
# HLA-A*11:01 = molecular target: HLA-A*11:01
# HLA-A*31:01 = molecular target: HLA-A*31:01
# HLA-A*33:01 = molecular target: HLA-A*33:01
# [1] = source organism: SARS coronavirus Tor2
# [2] = source organism: Vaccinia virus WR
# [3] = source organism: Mammarenavirus guanaritoense
# [4] = source organism: Mammarenavirus juninense
Sequence,Kd (HLA-A*68:01; [2]),Kd (HLA-A*03:01; [2]),Kd (HLA-A*11:01; [2]),Kd (HLA-A*31:01; [2]),Kd (HLA-A*33:01; [2]),Kd (HLA-A*02:02; [2]),Kd (HLA-A*02:06; [2]),Kd (HLA-A*02:03; [2]),further results
FLMSFTILCL,,,,,,,,,Kd (HLA-A*02:02; [1]): 0.821 nM; Kd (HLA-A*02:06; [1]): 74.4 nM; Kd (HLA-A*02:03; [1]): 213 nM
QTVNICIFY,1.96 nM,828 nM,39.9 nM,839 nM,10.5 µM,,,,
NAILHNIYR,0.565 nM,≥ 36100 nM,1360 nM,5.17 nM,0.00182 µM,,,,
QLSNNKYVL,,,,,,78.5 nM,10700 nM,4940 nM,
FVYVSVMNFI,,,,,,76.5 nM,7.5 nM,17.8 nM,
RSKIEVGIRH,,,,,,,,,Kd (HLA-A*68:01; [3]): ≥ 22200 nM; Kd (HLA-A*03:01; [3]): 13700 nM; Kd (HLA-A*11:01; [3]): ≥ 29000 nM; Kd (HLA-A*31:01; [3]): 1630 nM; Kd (HLA-A*33:01; [3]): ≥ 70 µM
YTLFQQTGR,0.384 nM,3100 nM,551 nM,50 nM,0.0241 µM,,,,
ETMYLTMKAI,,,,,,1320 nM,3580 nM,25.2 nM,
ISYCRAFIY,1.35 nM,1.44 nM,0.358 nM,232 nM,3.57 µM,,,,
IVNEHDIKY,4460 nM,1.13 nM,85.1 nM,≥ 39900 nM,≥ 55.8 µM,,,,
ILFILFFAYV,,,,,,132 nM,1210 nM,366 nM,
AALDGTFQRK,8290 nM,49.4 nM,8.05 nM,4280 nM,≥ 70 µM,,,,
MQVFFGYFA,,,,,,,,,Kd (HLA-A*02:02; [1]): 9.96 nM; Kd (HLA-A*02:06; [1]): 1.04 nM; Kd (HLA-A*02:03; [1]): 193 nM
VMCGGSLYVK,,,,,,,,,Kd (HLA-A*68:01; [1]): 8480 nM; Kd (HLA-A*03:01; [1]): 58.4 nM; Kd (HLA-A*11:01; [1]): 46.6 nM; Kd (HLA-A*31:01; [1]): 648 nM; Kd (HLA-A*33:01; [1]): 16.3 µM
DSMDVLAEKK,1.68 nM,343 nM,762 nM,1000 nM,3.54 µM,,,,
TLDTMDDMK,373 nM,11800 nM,466 nM,≥ 77900 nM,≥ 77.7 µM,,,,
YIWIKNLETY,161 nM,1460 nM,3440 nM,1740 nM,4.48 µM,,,,
MSHLKVALYR,31.2 nM,609 nM,100 nM,2.25 nM,0.0665 µM,,,,
KQIMECSRML,,,,,,54.8 nM,59.5 nM,≥ 29600 nM,

Sequence,Kd (HLA-A*68:01; [2]),Kd (HLA-A*03:01; [2]),Kd (HLA-A*11:01; [2]),Kd (HLA-A*31:01; [2]),Kd (HLA-A*33:01; [2]),Kd (HLA-A*02:02; [2]),Kd (HLA-A*02:06; [2]),Kd (HLA-A*02:03; [2]),further results
DLIAMENLK,16.2 nM,≥ 33500 nM,1350 nM,19500 nM,0.586 µM,,,,
AAAATCALV,,,,,,14.6 nM,12.5 nM,9.05 nM,
DISSFYWSL,,,,,,391 nM,3970 nM,6870 nM,
TLLCVLAAL,,,,,,,,,Kd (HLA-A*02:02; [1]): 8.1 nM; Kd (HLA-A*02:06; [1]): 7.98 nM; Kd (HLA-A*02:03; [1]): 10.6 nM
KINPLLDEPL,,,,,,53.4 nM,18.6 nM,304 nM,
YIEDELRRA,,,,,,1760 nM,1230 nM,259 nM,
TGINENYAK,,,,,,,,,Kd (HLA-A*68:01; [4]): 998 nM; Kd (HLA-A*03:01; [4]): ≥ 78000 nM; Kd (HLA-A*11:01; [4]): 1530 nM; Kd (HLA-A*31:01; [4]): ≥ 53400 nM; Kd (HLA-A*33:01; [4]): ≥ 77.7 µM
VATFRDMLL,,,,,,2530 nM,7720 nM,9940 nM,
YVEHDPRLVA,,,,,,18600 nM,11900 nM,16200 nM,
NIISRTRLY,879 nM,375 nM,1020 nM,3910 nM,10.2 µM,,,,
LIVSLCPTK,75.4 nM,8400 nM,107 nM,14200 nM,1.44 µM,,,,
AISSRVDRY,4740 nM,5010 nM,164 nM,18700 nM,≥ 77.7 µM,,,,
NMKPNFWSR,208 nM,≥ 78000 nM,≥ 34700 nM,0.349 nM,0.00106 µM,,,,
FLLFLEITY,1900 nM,10500 nM,15900 nM,160 nM,7.17 µM,,,,
TLVPVLEKKV,,,,,,112 nM,498 nM,100 nM,
RTELGVEFLK,,,,,,,,,Kd (HLA-A*68:01; [1]): 9720 nM; Kd (HLA-A*03:01; [1]): 962 nM; Kd (HLA-A*11:01; [1]): 52.4 nM; Kd (HLA-A*31:01; [1]): 1350 nM; Kd (HLA-A*33:01; [1]): 15.9 µM
SLIKTILASY,1730 nM,97.5 nM,1050 nM,4570 nM,≥ 43.3 µM,,,,
IMAFILGIII,,,,,,632 nM,3190 nM,3160 nM,
